These results are taken from paper PMC12719470 (2025).

This experiment has as its target T1, TNFR2-His protein (UniProt P20333 23-461).
T1 chain: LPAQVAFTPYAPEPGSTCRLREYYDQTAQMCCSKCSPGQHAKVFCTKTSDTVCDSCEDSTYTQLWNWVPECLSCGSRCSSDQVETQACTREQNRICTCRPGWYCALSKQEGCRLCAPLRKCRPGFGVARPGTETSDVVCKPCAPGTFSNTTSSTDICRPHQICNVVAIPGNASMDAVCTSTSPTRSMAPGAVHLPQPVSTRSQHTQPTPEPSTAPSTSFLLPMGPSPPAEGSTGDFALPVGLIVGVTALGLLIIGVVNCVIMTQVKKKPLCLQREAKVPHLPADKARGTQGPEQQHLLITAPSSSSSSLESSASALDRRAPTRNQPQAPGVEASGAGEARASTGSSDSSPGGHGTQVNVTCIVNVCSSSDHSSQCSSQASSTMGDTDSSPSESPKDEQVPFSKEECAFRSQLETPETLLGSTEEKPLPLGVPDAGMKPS
The experiment in a line: BLI. In general terms: Biolayer interferometry detects binding as a change in optical thickness at a sensor tip.

B1: Nanobody-161 IgG1 Y105G (Fc fusion)
chain: EVQLVESGGGLVQPGGSLRLSCAASGSIRFINDMGWYRQAPGKGLELVAAIGRGGGSTNYADSVKGRFTISRDNAKNTLYLQMNSLRAEDTAVYYCHAEISQLGGAFRDYWGQGTLVTVSS
The Kd is the concentration at which binding is half-saturated. Higher therefore signals lower affinity. On to B1, for which the Kd turned out to be 214 µM.
